Legend:
purified protein [1] = substrate: C[C@H](NC(=O)CC[C@H](N)C(=O)O)C(=O)Nc1ccc([N+](=O)[O-])cc1; experiment: purified protein; format: biochemical, Methanobacterium phage psiM2; conditions: 60 °C, pH 7.85 Bistris propane, 10 mM CaCl2, 10 mM TCEP, aerobic, substrate range below Km
purified protein [2] = substrate: C[C@H](NC(=O)CC[C@H](N)C(=O)O)C(=O)Nc1ccc([N+](=O)[O-])cc1; experiment: purified protein; format: biochemical, Methanothermobacter phage psiM100; conditions: 60 °C, pH 7.85 Bistris propane, 10 mM CaCl2, 10 mM TCEP, aerobic, substrate range limited to about 1 x Km

B1: PeiP (Methanobacterium phage psiM2) (protein)
chain: MRSNSVNIETFKDMLKRYEDFKMKNKREPRVIFIRSGGGESIPLETFRDMVRRYNNFKDRYGREPRIVYVTPPEPPVPEVNENTPEYVSITQFKDMLSRYNRFKEVNGREPRVVFIYSGGGPSVSLETFKDMCKRYNQFLEENRREPRIVYVTPPEPPVPEEVREMRRVLGEFKTATQLYTLVSRRCKYKFYYNDQTPNREALKKMVTDGINCTDACQLFKPVIEGLGYSVRIEHVKVRCNDNKWYGHYFLRVAGKELASVSLPSERWTVWDYVSATKTGRPLGAPCCSRGIQHLGWGIVSPKHD
notes: N-terminal His-tag kept, pET151D, E. coli BL21-Rosetta 2; 338 residues and 39,537 Da with tag; monomer
Q: Which Km (purified protein [1]) does the source give for B1 here?
A: 4.14 ± 0.14 mM

Q: And the kcat (purified protein [1])?
A: 1.18 ± 0.03 s⁻¹

B2: PeiW (Methanothermobacter phage psiM100) (protein)
chain: MEVGLNEFLDMKKRYEDFKMKNKREPRYVTTKNGYKVMLPVFKDMLRRYEDFVRINGREPNYISIQPQPNGKIEIKKFRDMLRRYEDFVRINGREPNIIYLEQGKSDHVSLGTFKDMLRRYKDFVRINGREPNYISIQPQPSLKGHWTTKVIEKIGTFHDATSLYERVKKTCKYKYYYNDQVPNHVAVMRMTTSGINCTDACQLFSKVLEEMGYEVKIEHVRVKCNDGKWYGHYLLRVGGFELKDGTIWDYVSATKTGRPLGVPCCTAGFQHLGWGIVGPVYDK
notes: N-terminal His-tag kept, pET151D, E. coli BL21-Rosetta 2; 317 residues and 37,219 Da with tag; monomer
Q: B2 was tested. Which Km (purified protein [2]) did it give?
A: 6.25 ± 0.44 mM

Q: And the kcat (purified protein [2])?
A: 5.73 ± 0.22 s⁻¹
